Data on six molecules can be found in US20170081417A1 (Kyowa Kirin, published 2017).

As a reminder, the IC50 is the concentration needed to halve the response being measured. A high value points to lower potency. As a reminder, the Kd is the equilibrium constant for the complex coming apart.

No end group written: not given here. Some results are limits rather than exact numbers.

Assay [1] concerns the target T1, human OX40 (CD134), full length, expressed on cells (activated human T cells); EL4-OX40 and CHO-OX40 … (human, UniProt P43489 29-277).
T1 sequence: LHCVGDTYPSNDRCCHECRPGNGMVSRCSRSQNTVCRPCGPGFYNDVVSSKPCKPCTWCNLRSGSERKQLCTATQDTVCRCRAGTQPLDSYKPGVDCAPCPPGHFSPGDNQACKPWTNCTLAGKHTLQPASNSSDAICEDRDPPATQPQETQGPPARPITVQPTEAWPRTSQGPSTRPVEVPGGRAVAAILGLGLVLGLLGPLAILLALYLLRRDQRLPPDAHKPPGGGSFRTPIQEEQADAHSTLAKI
The experiment in a line: cell-based or functional assay.

Assay [2] has as its target T1, human OX40 (CD134), full length, …. The experiment in a line: flow cytometry, blocking of OX40L-FLAG binding to activated human T cells; footnote: not inhibitory at 50 µg/ml. An excerpt: The activated T cells were also stained with mouse anti-human OX40 antibody L106 (Becton Dickinson), which was directly conjugated to phycoerythrin or whose binding was detected with anti-mouse IgG-PE (Southern Biotechnology Associates.) OX40L Blocking Assays: To determine if the anti-human OX40 antibodies could block OX40L binding to soluble OX40 both ELISA and flow cytometric protocols were used. In the ELISA 96 well Nunc flat bottom plates were coated with recombinant soluble hOX40:hFc at 2 μg/ml in carbonate buffer (pH9.4) for one hour at 37° C. The plates were washed with PBS/0.1% Tween 20 and Superblock (Pierce) was added to the wells to block non-specific binding. The test antibodies were diluted to 1 μg/ml in PBS/Tween and added to the plates. […] The TMB substrate was added, after ten minutes the reaction was stopped with H₂SO₄, and the results were read at 450 nm using a microplate reader. […] After another wash, the cells were fixed with 1% paraformaldehyde and analyzed on a FACScan or FACScalibur.
Slightly different results were obtained when a flow cytometric based assay was used to monitor blockade of soluble OX40L binding to activated human T cells that express OX40 (FIG. 5B). […] Binding of OX40L was detected with anti-FLAG-PE antibody. Percent inhibition was determined using the same formula, i.e., (100−(sample/maximum binding))*100.
Background: A flow cytometer gives signals particle by particle.

Assay [3] addresses T2, human OX40 extracellular domain fused to the Fc portion of human IgG1 (hOX40:hFc) (human).
T2 construct: Made in Tn5 insect cells; also called OX40-hIgG1; human OX40:hIgG1 fusion protein
In words: ELISA, OX40L-FLAG binding to coated hOX40:hFc, anti-FLAG-HRP. Here is the method:
(§1) The ability of 112F32, 112V8, 112Y131, 112Y55, and 112Z5 to block soluble hOX40L binding to coated hOX40:hFc fusion protein was tested using an ELISA protocol (FIG. 5A, Table 3). The plates were coated with hOX40:hFc and after blocking non-specific sites the anti-OX40 antibodies were allowed to bind. Without washing OX40L-FLAG was added to the wells. Bound ligand was detected with anti-FLAG-HRP secondary antibody. Percent inhibition was determined using the following formula (100−(OD sample/OD maximum OX40L binding))*100. 112V8, 112Y55, and 112Y131 prevented 85% of the binding of soluble OX40L to hOX40:hFc. 112F32 prevented approximately 70% of the binding of soluble hOX40L to hOX40:hFc and 112Z5 blocked 67% of the maximal binding.
For orientation: In an ELISA, binding on a coated surface is turned into a signal by an enzyme label.

For a further assay, the target named is T3, human OX40 peptide 112C (human, also: conjugated to KLH via maleimide linker).
T3 peptide: LAGKHTLQPASNSSDAIC
In words: ELISA on coated KLH-conjugated peptide. The method, then:
(§2) Antibody titers, specificity, and production by hybridomas were determined by ELISA. In brief, 96 well flat bottom plates were coated with 50 μl of hOX40:hFc at 5 μg/ml in carbonate buffer (pH 9.4) overnight at 4° C. or at 37° C. for one hour. After washing twice with PBS/0.1% Tween 20, plates were blocked with PBS/1% BSA/0.1% Tween20 at 37° C. for one hour. The serum, supernatant, or purified antibody was diluted in blocking buffer, added to the wells, and the plates were incubated for one hour at 37° C. The plates were washed four times with PBS/0.1% Tween 20 and the peroxidase conjugated sheep anti-human kappa detection antibody (The Binding Site, Birmigham, UK) was added at a dilution of 1:2000. Following one hour incubation at 37° C., the plates were washed and the TMB (Sigma) substrate was added and incubated at room temperature for ten to thirty minutes. The reaction was stopped with H₂SO₄ (LabChem) and the optical density was measured at 450 nm by a microplate reader.
(§3) The peptides were generated by A & A Lab, LLC and conjugated to keyhole limpet hemocyanin (“KLH”) with a maleimide linker following the manufacturer's instructions (Pierce). The peptides were coated at 10 μg/ml in carbonate buffer to 96 well Maxisorp ELISA plates (Nunc) at 4° C. overnight. The plate was washed with PBS/0.1% Tween 20 and then blocked with Casein buffer (Pierce) for three hours at room temperature. Candidate antibodies were added at 10 μg/ml diluted in 10% Casein in PBS/0.1% Tween 20. The remainder of the ELISA was performed as described for the OX40 specific antibody detection ELISA.

A further assay deals with T4, human OX40 peptide 112B (human, also: conjugated to KLH via maleimide linker).
T4 peptide: RAGTQPLDSYKPGVDC
In words: ELISA on coated KLH-conjugated peptide. Here is the method:
as §2, §3

For the next assay, the target named is T5, human OX40 peptide 112A (human, also: conjugated to KLH via maleimide linker).
T5 peptide: RPAGPGFYNDVVSSKPC
The experiment in a line: ELISA on coated KLH-conjugated peptide. The method, then:
as §2, §3

Assay [4] concerns the target T1, human OX40 (CD134), full length, …. In words: flow cytometry titration on activated human T cells, anti-human IgG-PE. The method, then: (§4) Following twenty minute incubation on ice, the cells were washed once and fixed ten minutes with 1% paraformaldehyde. After a final wash the cells were resuspended in staining buffer and the samples were acquired using FACScan or FACS Calibur flow cytometers (Becton Dickinson Biosciences, Palo Alto, Calif.), and the data were analyzed using Cellquest (Becton Dickinson Biosciences) or Flow Jo (TreeStar, Inc., San Carlos, Calif.) software. The activated T cells were also stained with mouse anti-human OX40 antibody L106 (Becton Dickinson), which was directly conjugated to phycoerythrin or whose binding was detected with anti-mouse IgG-PE (Southern Biotechnology Associates.) OX40L Blocking Assays: To determine if the anti-human OX40 antibodies could block OX40L binding to soluble OX40 both ELISA and flow cytometric protocols were used. In the ELISA 96 well Nunc flat bottom plates were coated with recombinant soluble hOX40:hFc at 2 μg/ml in carbonate buffer (pH9.4) for one hour at 37° C. The plates were washed with PBS/0.1% Tween 20 and Superblock (Pierce) was added to the wells to block non-specific binding. The test antibodies were diluted to 1 μg/ml in PBS/Tween and added to the plates. After one hour incubation at 37° C., FLAG tagged recombinant soluble human OX40L (Alexis Biochemicals, San Diego, Calif.) was added to the appropriate wells without washing out the anti-OX40 antibodies. Following one hour incubation, the plates were washed and an anti-FLAG-peroxidase conjugated antibody (Sigma) was added to the wells for one hour at 37° C. The TMB substrate was added, after ten minutes the reaction was stopped with H₂SO₄, and the results were read at 450 nm using a microplate reader. In the flow cytometric assay, human CD4+ T cells were purified and activated with PHA+IL2 for two days. The cells were washed and resuspended in staining buffer and then incubated with increasing amounts of human anti-human OX40 antibodies for twenty minutes on ice, from 0.005-50 μg/ml. Soluble recombinant OX40L-FLAG was then added to the cells. The cells were washed and incubated with anti-FLAG conjugated to PE (Sigma). After another wash, the cells were fixed with 1% paraformaldehyde and analyzed on a FACScan or FACScalibur.

The target of assay [5] is T2, human OX40 extracellular domain fused …. The experiment in a line: ELISA, blocking of OX40L-FLAG binding to coated hOX40:hFc. The method, then: as §1
Assay [6] concerns the target T1, human OX40 (CD134), full length, …. In words: flow cytometry, blocking of OX40L-FLAG binding to activated human T cells.
From the text: as §4, with “The” for “Following twenty minute incubation on ice, the cells were washed once and fixed ten minutes with 1% paraformaldehyde. After a final wash the cells were resuspended in staining buffer and the samples were acquired using FACScan or FACS Calibur flow cytometers (Becton Dickinson Biosciences, Palo Alto, Calif.), and the data were analyzed using Cellquest (Becton Dickinson Biosciences) or Flow Jo (TreeStar, Inc., San Carlos, Calif.) software. The”
Slightly different results were obtained when a flow cytometric based assay was used to monitor blockade of soluble OX40L binding to activated human T cells that express OX40 (FIG. 5B). Activated human T cells were labeled with anti-OX40 antibodies followed by soluble flag tagged-human OX40L. Binding of OX40L was detected with anti-FLAG-PE antibody. Percent inhibition was determined using the same formula, i.e., (100−(sample/maximum binding))*100.

B1: recombinant 112F32G1 antibody (112F32 variable regions in human IgG1) (antibody, V domains shown)
VH: GVQLVESGGGLVQPGGSLRLSCAASGFTFSSYSMNWVRQAPGKGLEWVSYISSSSSTIYYADSVKGRFTISRDNAKNSLYLQMNSLRDEDTAVYYCARGVYHNGWSFFDYWGQGTLLTVSS
VL: DIQMTQSPSSLSASVGNRVTITCRASQDISSWLAWYQQKPEKAPKSLIYAASSLQSGVPSRFSGSGSGTDFTLTISSLQPEDFATYYCQQYNSYPLTFGQGTRLEIKR
Take B1: in assay [1], the “ADCC % Lysis at 10 µg/ml” value was found to be 37%.

B2: 112F32 human anti-human OX40 monoclonal antibody (hybridoma ATCC No. PTA-7217) (antibody, V domains shown)
VH: GVQLVESGGGLVQPGGSLRLSCAASGFTFSSYSMNWVRQAPGKGLEWVSYISSSSSTIYYADSVKGRFTISRDNAKNSLYLQMNSLRDEDTAVYYCARGVYHNGWSFFDYWGQGTLLTVSS
VL: DIQMTQSPSSLSASVGNRVTITCRASQDISSWLAWYQQKPEKAPKSLIYAASSLQSGVPSRFSGSGSGTDFTLTISSLQPEDFATYYCQQYNSYPLTFGQGTRLEIKR
Take B2: the IC50 in assay [2] was more than 50 µg/mL; in assay [5], 0.65 µg/mL. The “percent inhibition of OX40L binding” value in assay [3] is approximately 70%. The binding result with human OX40 peptide 112C, with human OX40 peptide 112B and with human OX40 peptide 112A was “no binding (tested: 10 µg/ml)” in each case. Moreover, the “BMAX Geo Mean” value in assay [4] is 104 geometric mean fluorescence. In [4], the Kd was 13 nM.

B3: 112Z5 human anti-human OX40 monoclonal antibody (hybridoma ATCC No. PTA-7216) (antibody, V domains shown)
VH: VVSTQSTGGGLVQPGRSLRLSCAASGFTLDDYGMHWVRQAPGKGLEWVSGISWNSDSIGYVDSVKGRFTISRDNAKNSLYLQMNSLRVEDTALYYCVKDISGWYSFDYWGQGTLVTVSS
VL: EIVLTQSPATLSLSPGERATLSCRASQSVSSYLAWYQQKPGQAPRLLIYDASNRATGIPARFSGSGSGTDFTLTISSLEPEDFAVYYCQQRSNWPITFGQGTRLEIK
In the case of B3, the “percent inhibition of OX40L binding” value in [3] was 67%. For the same molecule, the “ADCC % Lysis at 10 µg/ml” value in assay [1] amounted to 35%. Moreover, the “BMAX Geo Mean” value in assay [4] is 118 geometric mean fluorescence. The same molecule registered a Kd in assay [4] of 11 nM. The results for the IC50 in [5] and in assay [6] were 0.081 µg/mL and 14.7 µg/mL, respectively.

B4: recombinant 112V8G1 antibody (112V8 variable regions in human IgG1) (antibody, V domains shown)
VH: QITLKESGPTLVKPKQTLTLTCTFSGFSLSTSGMGVGWIRQPPGKALEWLAVIYWDDHQLYSPSLKSRLTITKDTSKNQVVLTMTNMDPVDTATYYCAHRRGAFQHWGQGTLVTVSS
VL: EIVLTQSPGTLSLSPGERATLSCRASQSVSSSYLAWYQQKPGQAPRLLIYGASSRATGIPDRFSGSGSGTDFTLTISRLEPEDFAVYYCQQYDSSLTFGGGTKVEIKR
As to B4, the “ADCC % Lysis at 10 µg/ml” value in [1] worked out at 55.6%.

B5: recombinant 112V8 IgG4PE antibody (112V8G4PE) (antibody, V domains shown)
VH: QITLKESGPTLVKPKQTLTLTCTFSGFSLSTSGMGVGWIRQPPGKALEWLAVIYWDDHQLYSPSLKSRLTITKDTSKNQVVLTMTNMDPVDTATYYCAHRRGAFQHWGQGTLVTVSS
VL: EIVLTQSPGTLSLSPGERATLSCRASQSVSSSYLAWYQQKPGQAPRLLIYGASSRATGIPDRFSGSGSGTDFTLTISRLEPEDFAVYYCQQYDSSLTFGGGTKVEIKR
In the case of B5, the “ADCC % Lysis at 10 µg/ml” value in assay [1] is 18%.

B6: 112V8 human anti-human OX40 monoclonal antibody (hybridoma ATCC No. PTA-7219) (antibody, IgG4, V domains shown)
VH: QITLKESGPTLVKPKQTLTLTCTFSGFSLSTSGMGVGWIRQPPGKALEWLAVIYWDDHQLYSPSLKSRLTITKDTSKNQVVLTMTNMDPVDTATYYCAHRRGAFQHWGQGTLVTVSS
VL: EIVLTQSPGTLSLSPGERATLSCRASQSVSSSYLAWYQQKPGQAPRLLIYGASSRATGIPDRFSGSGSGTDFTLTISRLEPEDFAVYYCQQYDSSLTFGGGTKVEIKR
Take B6: in assay [3], the “percent inhibition of OX40L binding” value was 85%. The binding result in the assay with human OX40 peptide 112C, in the assay with human OX40 peptide 112B and with human OX40 peptide 112A was “no binding (tested: 10 µg/ml)” throughout. In addition, the “BMAX Geo Mean” value in assay [4] was 181 geometric mean fluorescence. Besides, in assay [4], the Kd came out at 36 nM. Also, the IC50 in assay [5] turned out to be 0.051 µg/mL; in [6] it was 0.62 µg/mL.
